According to publication PMC6160412, “Structural insights into modulation and selectivity of transsynaptic neurexin–LRRTM interaction” (Nature Communications, 2018):

Tests used:
Details in all cases: both partners purified
[1] = target: T1, human LRRTM2 LRR domain, wild type (human, UniProt O43300 34-371); assay: SPR; Biacore T200; wild-type or mutant LRRTM immobilised on a CM5 chip by amine coupling; Nrxn1β as analyte in two-fold dilutions from 40 µM (from 160 µM for +S4 and R206A); 25 °C; 20 mM Hepes-NaOH pH 7.5, 150 mM NaCl, 2 mM CaCl2, 0.005% Tween-20, 0.5 g/L BSA; equilibrium KD
T1 construct: signal peptide in the construct; human LRRTM2 LRR domain, residues 1-371 cloned (residues 34-371 are named for the crystallised protein); Secreted with its own signal peptide; the mature protein probably begins at residue 34, as in the crystallised protein; also called LRRTM2^WT; hLRRTM2; source: Expi293F, transiently expressed, purified from culture medium (Ni-NTA, SEC)
T1 sequence (looked up): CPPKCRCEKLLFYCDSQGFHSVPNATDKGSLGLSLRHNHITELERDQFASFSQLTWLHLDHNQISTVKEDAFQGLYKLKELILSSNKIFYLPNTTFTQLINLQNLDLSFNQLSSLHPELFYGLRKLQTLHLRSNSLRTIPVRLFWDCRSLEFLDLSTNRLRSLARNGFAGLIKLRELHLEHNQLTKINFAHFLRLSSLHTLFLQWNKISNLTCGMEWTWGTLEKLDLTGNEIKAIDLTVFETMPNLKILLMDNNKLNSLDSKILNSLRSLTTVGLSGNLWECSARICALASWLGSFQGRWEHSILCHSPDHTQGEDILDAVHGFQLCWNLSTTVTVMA

[2] = target: T1, human LRRTM2 LRR domain, wild type; assay: ITC; MicroCal Auto-iTC, 25 °C; LRRTM2 (15 µM) in the cell, Nrxn1β (200 µM) injected; 20 mM Hepes-NaOH pH 7.5, 150 mM NaCl, 2 mM CaCl2, 0.005% Tween-20, no BSA; one-site model
[3] = target: T2, human LRRTM2 LRR domain, F357Y mutant (human, UniProt O43300 34-371, F357Y); assay: SPR; Biacore T200; wild-type or mutant LRRTM immobilised on a CM5 chip by amine coupling; Nrxn1β as analyte in two-fold dilutions from 40 µM (from 160 µM for +S4 and R206A); 25 °C; 20 mM Hepes-NaOH pH 7.5, 150 mM NaCl, 2 mM CaCl2, 0.005% Tween-20, 0.5 g/L BSA; equilibrium KD
T2 construct: signal peptide in the construct; human LRRTM2 LRR domain, residues 1-371 cloned, with F357Y; also called LRRTM2^F357Y; source: Expi293F, transiently expressed, purified from culture medium (Ni-NTA, SEC)
T2 sequence (looked up): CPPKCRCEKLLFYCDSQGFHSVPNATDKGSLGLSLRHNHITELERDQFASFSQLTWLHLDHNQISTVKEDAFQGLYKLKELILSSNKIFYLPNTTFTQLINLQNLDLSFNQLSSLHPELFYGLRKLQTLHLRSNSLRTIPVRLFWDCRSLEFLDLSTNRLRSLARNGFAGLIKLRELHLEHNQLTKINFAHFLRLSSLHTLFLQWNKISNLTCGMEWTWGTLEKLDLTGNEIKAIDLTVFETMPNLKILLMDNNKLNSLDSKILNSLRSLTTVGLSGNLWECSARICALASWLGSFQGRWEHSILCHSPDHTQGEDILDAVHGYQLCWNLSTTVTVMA

[4] = target: T3, human LRRTM2 LRR domain, H355A mutant (human, UniProt O43300 34-371, H355A); assay: as above
T3 construct: signal peptide in the construct; human LRRTM2 LRR domain, residues 1-371 cloned, with H355A; Neuraminidase was added before crystallization to trim N-linked glycans; also called LRRTM2^H355A; hLRRTM2^H355A; source: Expi293F, transiently expressed, purified from culture medium (Ni-NTA, SEC); for crystallization coexpressed with Nrxn1β (–S4) LNS and separated by SEC
T3 sequence (looked up): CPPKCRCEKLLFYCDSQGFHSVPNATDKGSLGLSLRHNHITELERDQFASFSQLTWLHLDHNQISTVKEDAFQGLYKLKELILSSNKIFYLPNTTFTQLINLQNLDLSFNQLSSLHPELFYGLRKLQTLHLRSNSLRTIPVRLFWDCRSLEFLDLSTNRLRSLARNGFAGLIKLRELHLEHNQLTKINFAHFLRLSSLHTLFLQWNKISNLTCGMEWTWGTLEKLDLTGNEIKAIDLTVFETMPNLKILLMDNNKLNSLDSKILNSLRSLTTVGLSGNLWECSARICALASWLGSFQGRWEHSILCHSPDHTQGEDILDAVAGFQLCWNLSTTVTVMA

[5] = target: T4, human LRRTM2 LRR domain, D352A mutant (human, UniProt O43300 34-371, D352A); assay: as above
T4 construct: signal peptide in the construct; human LRRTM2 LRR domain, residues 1-371 cloned, with D352A; also called LRRTM2 D352A; source: Expi293F, transiently expressed, purified from culture medium (Ni-NTA, SEC)
T4 sequence (looked up): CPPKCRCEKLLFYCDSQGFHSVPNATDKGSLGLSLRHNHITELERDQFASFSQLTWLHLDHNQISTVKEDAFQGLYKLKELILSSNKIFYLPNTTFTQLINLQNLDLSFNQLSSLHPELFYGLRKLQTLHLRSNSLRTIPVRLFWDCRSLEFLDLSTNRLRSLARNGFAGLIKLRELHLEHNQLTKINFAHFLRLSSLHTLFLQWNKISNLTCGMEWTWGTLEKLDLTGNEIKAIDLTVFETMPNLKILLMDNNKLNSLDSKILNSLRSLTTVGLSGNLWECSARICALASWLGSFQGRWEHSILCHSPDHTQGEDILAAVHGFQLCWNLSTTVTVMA

Binder | Kd [1] [µM] | Kd [2] [µM] | fold decrease in affinity against wild-type LRRTM2 [3] [fold] | Kd [4] [µM] | fold decrease in affinity against wild-type LRRTM2 [5] [fold]
human Nrxn1β LNS domain with the S4 insert (+S4) (domain or fragment, Ca2+-bound (2 mM CaCl2). S4 insert is entry residues 205-234.) not shown | > 80 | – | – | – | –
human Nrxn1β LNS domain (–S4), wild type (domain or fragment, human neurexin-1β LNS domain, splice variant without the S4 insert, residues 86-266; numbers count on: human Nrxn1β (–S4) (NM_001330092.1); also called Nrxn1β (–S4); Nrxin1β (–S4); source: Expi293F, transiently expressed, purified from culture medium (Ni-NTA, SEC); for crystallization coexpressed with LRRTM2 LRR and separated by SEC) not shown | 4 | 4.2 | ~5 | 4.3 | > 9
human Nrxn1β LNS domain (–S4), R206A mutant (domain or fragment, Ca2+-bound (2 mM CaCl2). Entry P58400 carries the S4 insert at 205-234, so paper (-S4) residues 205-266 are entry 235-296 (R206 = R236).) not shown | > 160 | – | – | – | –
